Laboratory results as given in paper PMC12403594, “On the self-assembly of αB-crystallin” (Soft Matter, 2025).

Tests used:
[1] = biological target: the molecule itself; assay: static light scattering; day 0 (day of thawing and dilution); 10-69 μM αBC; 20 mM sodium phosphate, 0.2 mM EDTA, 0.02% NaN3, pH 8.0; 25 °C; aggregation number from the slope of the excess Rayleigh ratio at q = 0 against concentration
[2] = biological target: the molecule itself; assay: static light scattering; day 7 after sample preparation; 10-69 μM αBC; 20 mM sodium phosphate, 0.2 mM EDTA, 0.02% NaN3, pH 8.0; 25 °C; aggregation number from the slope of the excess Rayleigh ratio at q = 0 against concentration

B1: Recombinant human αB-crystallin (natural protein)
chain: MDIAIHHPWIRRPFFPFHSPSRLFDQFFGEHLLESDLFPTSTSLSPFYLRPPSFLRAPSWFDTGLSEMRLEKDRFSVNLDVKHFSPEELKVKVLGDVIEVHGKHEERQDEHGFISREFHRKYRIPADVDPLTITSSLSSDGVLTVNGPRKQVSGPERTIPITREEKPAVTAAPKK
notes: αB-crystallin, human; expressed from a synthetic gene with E. coli-optimized codons in a Pet3a vector; No tag is mentioned; The introduction gives 175 residues for the protein
stoichiometry N [1]: 24 | stoichiometry N [2]: 19
